Laboratory results taken from patent US20150166606A1 (RA PHARMACEUTICALS, published 2015).
Like-named read-outs stand apart in the source and are kept apart here. Numbered stars: 1 amine (or outer) side, 2 acyl side, 3 side chain; on linkers, the order of the positions; unused ones are H or OH. Bridge positions count the residues as written; N and C are the ends. Square brackets hold non-standard residues; d marks the D form. Primed or numbered codes have the meaning given here. Ends that are not written are not given here. ABP = 2-amino-3-(5-bromothiophen-2-yl)propanoic acid, O=C([C@H](Cc1ccc(Br)s1)N[*:1])[*:2]; mXylyl = xylyl linker from dibromoxylene joining the two cysteines; des‑NH2 = missing amino-terminal amine group; Phe(4-amidino)′ = not defined here; Igl = N[C@H](C(=O)O)C1Cc2ccccc2C1; NMeR = CN[C@@H](CCCNC(=N)N)C(=O)O; dPhg = N[C@@H](C(=O)O)c1ccccc1; Chg = N[C@H](C(=O)O)C1CCCCC1; Phg = N[C@H](C(=O)O)c1ccccc1; Tle = CC(C)(C)[C@H](N)C(=O)O; Dab = NCC[C@H](N)C(=O)O; Nva = CCC[C@H](N)C(=O)O

Experiments:
[1] = molecular target: T1, Activated human plasma kallikrein (Enzyme Research Laboratories, HPKa 1303) (human, UniProt P03952 20-638); test: cell-based or functional assay
[2] = molecular target: T1, Activated human plasma kallikrein …; test: cell-based or functional assay; remark: listed apart in the source

T1 sequence (P03952 20-638 limits assumed): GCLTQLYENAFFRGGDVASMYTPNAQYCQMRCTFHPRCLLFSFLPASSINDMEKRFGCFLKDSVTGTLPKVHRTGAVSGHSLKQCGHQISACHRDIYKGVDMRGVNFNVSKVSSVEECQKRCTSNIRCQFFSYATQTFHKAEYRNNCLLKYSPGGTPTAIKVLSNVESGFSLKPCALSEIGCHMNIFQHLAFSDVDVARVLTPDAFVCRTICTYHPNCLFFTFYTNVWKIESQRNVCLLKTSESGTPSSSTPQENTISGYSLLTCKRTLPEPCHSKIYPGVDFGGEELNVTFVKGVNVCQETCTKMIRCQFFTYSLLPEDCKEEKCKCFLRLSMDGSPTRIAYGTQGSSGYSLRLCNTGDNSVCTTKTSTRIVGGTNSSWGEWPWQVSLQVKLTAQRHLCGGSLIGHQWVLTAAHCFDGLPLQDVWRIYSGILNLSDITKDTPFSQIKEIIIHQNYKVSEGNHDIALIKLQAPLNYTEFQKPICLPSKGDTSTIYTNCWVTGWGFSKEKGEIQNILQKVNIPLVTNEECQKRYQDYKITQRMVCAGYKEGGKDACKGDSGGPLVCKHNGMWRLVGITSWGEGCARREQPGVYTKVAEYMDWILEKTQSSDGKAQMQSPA

Row | Binder | Avg. IC50 [1] | Avg. IC50 [2]
1 | MCNYWSPWTSEIC-NH2 (cysteine pairing not given here) [R2105] | 4.4 nM | 
2 | Ac-NYWSPWT-NH2 [R2106] | 374 nM | 
3 | MSNYWSPWTESSA-NH2 [R2107] | 128 nM | 
4 | MCNYWSPWTECSA-NH2 (linker 2-11 via mXylyl) [R2108] | 4.1 nM | 
5 | MCNYWSPWTSEIC-NH2 (linker 2-13 via mXylyl) [R2109] | 9.2 nM | 
6 | MCNYWSPWTECS-NH2 (cysteine pairing not given here) [R2110] | 3.5 nM | 
7 | MCNYWSPWTEC-NH2 (cysteine pairing not given here) [R2111] | 3.8 nM | 
8 | MCNYWSPWTE-NH2 [R2112] | 2.4 nM | 
9 | MCNYWSPWT-NH2 [R2113] | 88.8 nM | 
10 | MCNYWSPW-NH2 [R2114] | 349 nM | 
11 | MCNYWSP-NH2 [R2115] | > 17300 nM | 
12 | Ac-CNYWSPWTECSA-NH2 (cysteine pairing not given here) [R2116] | 3.5 nM | 
13 | Ac-NYWSPWTECSA-NH2 [R2117] | 43.9 nM | 
14 | Ac-YWSPWTECSA-NH2 [R2118] | > 100000 nM | 
15 | Ac-WSPWTECSA-NH2 [R2119] | > 100000 nM | 
16 | Ac-SPWTECSA-NH2 [R2120] | > 100000 nM | 
17 | Ac-PWTECSA-NH2 [R2121] | 10300 nM | 
18 | MCNYWSPWTSEI-NH2 [R2122] | 30.4 nM | 
19 | MCNYWSPWTSE-NH2 [R2123] | 25.5 nM | 
20 | MCNYWSPWTS-NH2 [R2124] | 54.6 nM | 
21 | Ac-CNYWSPWTECSA-NH2 (linker 1-10 via mXylyl) [R2125] | 10.6 nM | 
22 | Ac-CNYWSPWTEC-NH2 (cysteine pairing not given here) [R2126] | 1.4 nM | 
23 | Ac-CNYWSPWTEA-NH2 [R2127] | 35.6 nM | 
24 | Ac-CNYWSPWTAC-NH2 (cysteine pairing not given here) [R2128] | 2.5 nM | 

Row | Binder | Avg. IC50 [1] | Avg. IC50 [2]
25 | Ac-CNYWSPWAEC-NH2 (cysteine pairing not given here) [R2129] | 12.3 nM | 
26 | Ac-CNYWSPATEC-NH2 (cysteine pairing not given here) [R2130] | 5300 nM | 
27 | Ac-CNYWAPWTEC-NH2 (cysteine pairing not given here) [R2131] | 127 nM | 
28 | Ac-CNYASPWTEC-NH2 (cysteine pairing not given here) [R2132] | 4110 nM | 
29 | Ac-CNAWSPWTEC-NH2 (cysteine pairing not given here) [R2133] | 39.1 nM | 
30 | Ac-CNYWSPWTC-NH2 (cysteine pairing not given here) [R2134] | 86.7 nM | 
31 | Ac-CNYWSPWT-NH2 [R2135] | 144 nM | 
32 | Ac-CNYWSPWTAC-NH2 (linker 1-10 via mXylyl) [R2136] | 6.1 nM | 
33 | Ac-CNYWSAWTEC-NH2 (cysteine pairing not given here) [R2137] | 57.2 nM | 
34 | Ac-ANYWSPWTEC-NH2 [R2138] | 22.3 nM | 
35 | Ac-[Nva]NYWSPWTAC-NH2 (SMILES CCC[C@H](NC(C)=O)C(=O)N[C@@H](CC(N)=O)C(=O)N[C@@H](Cc1ccc(O)cc1)C(=O)N[C@@H](Cc1c[nH]c2ccccc12)C(=O)N[C@@H](CO)C(=O)N1CCC[C@H]1C(=O)N[C@@H](Cc1c[nH]c2ccccc12)C(=O)N[C@H](C(=O)N[C@@H](C)C(=O)N[C@@H](CS)C(N)=O)[C@@H](C)O) [R2139] | 65.3 nM | 
36 | Ac-CNYWSPWTA[Nva]-NH2 (SMILES CCC[C@H](NC(=O)[C@H](C)NC(=O)[C@@H](NC(=O)[C@H](Cc1c[nH]c2ccccc12)NC(=O)[C@@H]1CCCN1C(=O)[C@H](CO)NC(=O)[C@H](Cc1c[nH]c2ccccc12)NC(=O)[C@H](Cc1ccc(O)cc1)NC(=O)[C@H](CC(N)=O)NC(=O)[C@H](CS)NC(C)=O)[C@@H](C)O)C(N)=O) [R2140] | 105 nM | 
37 | Ac-[Nva]NYWSPWTA[Nva]-NH2 (SMILES CCC[C@H](NC(=O)[C@H](C)NC(=O)[C@@H](NC(=O)[C@H](Cc1c[nH]c2ccccc12)NC(=O)[C@@H]1CCCN1C(=O)[C@H](CO)NC(=O)[C@H](Cc1c[nH]c2ccccc12)NC(=O)[C@H](Cc1ccc(O)cc1)NC(=O)[C@H](CC(N)=O)NC(=O)[C@H](CCC)NC(C)=O)[C@@H](C)O)C(N)=O) [R2141] | 157 nM | 
38 | {des‑NH2}-CP[Phg]C[Dab][Tle]-NH2 (linker 1-4 via mXylyl; not fully specified (residue 1); printed as [mXylyl(1,4)](des-NH2)C-P-Phg-C-Dab-Tbg-NH2) [R2211] |  | > 75000 nM
39 | {des‑NH2}-CP[dPhg]C[Dab][Tle]-NH2 (bridge 1-4; not fully specified (residue 1, bridges); printed as [mXylyl(1,4)](des-NH2)C-P-(D-Phg)-C-Dab-Tbg-NH2) [R2212] |  | > 100000 nM
40 | {des‑NH2}-CE(PEG 40 kDa)[Chg]CR[Tle]-NH2 (linker 1-4 via mXylyl) [R2213] |  | 462 nM
41 | {des‑NH2}-CP[Chg]CR[Tle]-OH (linker 1-4 via mXylyl) [R2214] |  | 4000 nM
42 | {des‑NH2}-CP[Phg]C[Phe(4-amidino)′]V-NH2 (linker 1-4 via mXylyl) [R2215] |  | 6390 nM
43 | {des‑NH2}-CP[Phg]CR[Tle]L[NMeR]YSE-NH2 (linker 1-4 via mXylyl) [R2216] |  | 0.913 nM
44 | {des‑NH2}-CP[dPhg]CR[Tle]L[NMeR]YSE-NH2 (linker 1-4 via mXylyl) [R2217] |  | 114 nM
45 | {des‑NH2}-CP[Igl]CR[Tle]-NH2 (bridge 1-4; not fully specified (residue 1, bridges); printed as [mXylyl(1,4)](des-NH2)C-P-Ind-CR-Tbg-NH2) [R2218] |  | 3 nM
46 | {des‑NH2}-CP[Phg]C[ABP][Tle]-NH2 (bridge 1-4; not fully specified (residue 1, bridges); printed as [mXylyl(1,4)(des-NH2)C-P-Phg-C-ABP-Tbg-NH2) [R2219] |  | > 100000 nM
47 | {des‑NH2}-CP[dPhg]C[ABP][Tle]-NH2 (bridge 1-4; not fully specified (residue 1, bridges); printed as [mXylyl(1,4)](des-NH2)C-P-(D-Phg)-C-ABP-Tbg-NH2) [R2220] |  | > 100000 nM
48 | {des‑NH2}-CP[Phg]C-{4‑(aminomethyl)benzimidamide} (linker 1-4 via mXylyl) [R2221] |  | 401 nM
